Source: patent US20010034326A1 (UNIVERSITY OF NEW MEXICO, published 2001)
Read-outs that look alike come from different tables or passages of the source. Bridge positions count the residues as written; N and C are the ends. Ends that are not written are not given here.

B1: CLVRMRSAC (SEQ ID NO: 41), cyclic disulfide-linked peptide (peptide)
peptide: CLVRMRSAC
modifications: disulfide 1-9
B2: CLLRMRSAC (SEQ ID NO: 40), cyclic disulfide-linked peptide (peptide)
peptide: CLLRMRSAC
modifications: disulfide 1-9
B3: CLLRARSIC (SEQ ID NO: 37), cyclic disulfide-linked peptide (peptide)
peptide: CLLRARSIC
modifications: disulfide 1-9
B4: CLLRMRAIC (SEQ ID NO: 39), cyclic disulfide-linked peptide (peptide)
peptide: CLLRMRAIC
modifications: disulfide 1-9
B5: CVLRMRSAC (SEQ ID NO: 42), cyclic disulfide-linked peptide (peptide)
peptide: CVLRMRSAC
modifications: disulfide 1-9
B6: CLLRMRSVC (SEQ ID NO: 48), cyclic disulfide-linked peptide (peptide)
peptide: CLLRMRSVC
modifications: disulfide 1-9
B7: CLLKMRSAC (SEQ ID NO: 45), cyclic disulfide-linked peptide (peptide)
peptide: CLLKMRSAC
modifications: disulfide 1-9
B8: CLLRMRSLC (SEQ ID NO: 47), cyclic disulfide-linked peptide (peptide)
peptide: CLLRMRSLC
modifications: disulfide 1-9
B9: CLLRMKSAC (SEQ ID NO: 46), cyclic disulfide-linked peptide (peptide)
peptide: CLLRMKSAC
modifications: disulfide 1-9
B10: CLLRMASIC (SEQ ID NO: 38), cyclic disulfide-linked peptide (peptide)
peptide: CLLRMASIC
modifications: disulfide 1-9
B11: CALRMRSIC (SEQ ID NO: 34), cyclic disulfide-linked peptide (peptide)
peptide: CALRMRSIC
modifications: disulfide 1-9
B12: CLIRMRSAC (SEQ ID NO: 44), cyclic disulfide-linked peptide (peptide)
peptide: CLIRMRSAC
modifications: disulfide 1-9
B13: consensus peptide CLLRMRSIC (SEQ ID NO: 1), cyclized in the disulfide-linked form (peptide)
peptide: CLLRMRSIC
modifications: disulfide 1-9
notes: Synthesized by Biopeptide; consensus derived from phage display on ICAM-1
B14: randomized cyclic peptide CLRLSRIMC (SEQ ID NO: 56) (peptide)
peptide: CLRLSRIMC
modifications: disulfide 1-9
B15: CILRMRSAC (SEQ ID NO: 43), cyclic disulfide-linked peptide (peptide)
peptide: CILRMRSAC
modifications: disulfide 1-9
B16: CLARMRSIC (SEQ ID NO: 35), cyclic disulfide-linked peptide (peptide)
peptide: CLARMRSIC
modifications: disulfide 1-9

Key:
[1] = molecular target: T1, ICAM-1 expressed on cells (JY cells; stimulated endothelial cells) (UniProt P05362 28-532, limits assumed); assay: cell-based or functional assay
[2] = molecular target: T1, ICAM-1 expressed on cells (JY cells; …); assay: cell-based or functional assay; remark: listed apart in the source
[3] = molecular target: T1, ICAM-1 expressed on cells (JY cells; …); assay: cell-based or functional assay; remark: listed apart in the source
[4] = molecular target: T1, ICAM-1 expressed on cells (JY cells; …); assay: cell-based or functional assay; remark: listed apart in the source
[5] = molecular target: T2, ICAM-1 (intracellular adhesion molecule 1), as used in the ELISA of monovalent ICAM-1 binding (human, UniProt P05362 28-480, limits assumed); assay: ELISA of monovalent ICAM-1 binding; for example inhibition of 84H10 binding to ICAM-1
T2 construct: also called purified ICAM-1
T2 sequence (P05362 28-480 limits assumed): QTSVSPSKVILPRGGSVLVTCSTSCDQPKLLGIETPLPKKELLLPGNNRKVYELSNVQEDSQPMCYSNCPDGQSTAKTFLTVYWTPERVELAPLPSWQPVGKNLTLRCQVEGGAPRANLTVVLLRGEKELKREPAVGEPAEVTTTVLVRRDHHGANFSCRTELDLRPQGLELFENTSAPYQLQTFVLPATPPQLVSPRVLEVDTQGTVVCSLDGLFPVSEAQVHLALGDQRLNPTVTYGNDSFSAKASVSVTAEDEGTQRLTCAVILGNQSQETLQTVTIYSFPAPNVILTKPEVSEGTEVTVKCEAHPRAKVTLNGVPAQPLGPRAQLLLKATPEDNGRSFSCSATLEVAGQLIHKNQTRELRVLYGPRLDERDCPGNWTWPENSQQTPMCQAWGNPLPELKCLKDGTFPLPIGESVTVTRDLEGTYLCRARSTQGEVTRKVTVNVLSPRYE

T1 sequence (P05362 28-532 limits assumed): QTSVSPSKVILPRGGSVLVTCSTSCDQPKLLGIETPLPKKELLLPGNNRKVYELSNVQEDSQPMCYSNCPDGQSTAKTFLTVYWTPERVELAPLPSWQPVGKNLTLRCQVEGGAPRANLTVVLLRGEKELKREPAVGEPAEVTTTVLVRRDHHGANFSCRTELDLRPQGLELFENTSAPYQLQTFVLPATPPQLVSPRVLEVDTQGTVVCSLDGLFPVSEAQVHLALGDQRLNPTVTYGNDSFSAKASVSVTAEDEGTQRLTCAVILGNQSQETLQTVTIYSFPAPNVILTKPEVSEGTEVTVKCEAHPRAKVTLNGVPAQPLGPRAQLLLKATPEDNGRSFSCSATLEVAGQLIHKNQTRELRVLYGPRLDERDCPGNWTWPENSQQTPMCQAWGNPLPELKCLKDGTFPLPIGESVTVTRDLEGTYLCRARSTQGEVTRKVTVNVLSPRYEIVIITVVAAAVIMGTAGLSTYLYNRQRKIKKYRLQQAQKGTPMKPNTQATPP

Binder	Percent Inhibition [1] [percent]	Percent JY Aggregation [1] [percent]	Percent Inhibition [2] [percent]	Percent JY Aggregation [2] [percent]	further results
B1	0	55			
B2			61	29	
B3			5	72	
B4			27	56	
B5	56	24			
B6	92	4			
B7	94	3			
B8	-12	61			
B9	90	6			Cells/mm^2, firm attachment of neutrophils to stimulated endothelial cells in a parallel plate flow chamber [3]: 283 cells/mm^2; Percent Inhibition of firm attachment of neutrophils to stimulated endothelial cells [3]: 66 percent
B10			11	68	
B11			7	71	
B12	93	4			
B13	45	30	46	41	IC50, inhibition of JY cell aggregation [4]: 500 µM; IC50 for cell aggregation [4]: 800 µM; Cells/mm^2, firm attachment of neutrophils to stimulated endothelial cells in a parallel plate flow chamber [3]: 439 cells/mm^2; Percent Inhibition of firm attachment of neutrophils to stimulated endothelial cells [3]: 47 percent; IC50 [5]: 250 nM
B14	-3.6	57	4	74	Cells/mm^2, firm attachment of neutrophils to stimulated endothelial cells in a parallel plate flow chamber [3]: 617 cells/mm^2; Percent Inhibition of firm attachment of neutrophils to stimulated endothelial cells [3]: 25 percent
B15	92	4			
B16			9	69	
